Laboratory results reported in US20190262327A1, “COMBINATION OF A BACE INHIBITOR AND AN ANTIBODY OR ANTIGEN-BINDING FRAGMENT FOR THE TREATMENT OF A DISORDER ASSOCIATED WITH THE ACCUMULATION OF AMYLOID BETA” (ASTRAZENECA AB, priority 2016, published 2019).
“Also recorded” adds a separate entry of the source.

Key:
Amyloid beta plaques = experiment: In vivo binding to Amyloid beta plaques in aged Tg2576 mice (immunohistochemistry); parameters: species or system mouse; conditions: 168 hours after single i.v. dose of 10 or 30 mg/kg
Experimental: Abet0380-GL IgG1-TM was tested for its ability to bind to Amyloid beta plaques in aged Tg2576 mice after a single peripheral dose. Animal experimentations were performed in accordance with relevant guidelines and regulations provided by the Swedish Board of Agriculture. The ethical permission was provided by an ethical board specialized in animal experimentations: the Stockholm Sodra Animal Research Ethical Board. Seventeen-month old female Tg2576 mice (n=5) received a single dose of vehicle, a positive control antibody at 30 mg/kg or the Abet0380-GL IgG1-TM antibody at 10 or 30 mg/kg by intravenous injection with a dosing vehicle of 25 mM Histidine, 7% Sucrose, 0.02% p80 surfactant, pH 6.0 at 5 mL/kg. At 168 hours after dose, animals were deeply anaesthetized and perfused with room temperature PBS followed by cold (4° C.) phosphate buffered 4% paraformaldehyde (PFA). Animals were then sacrificed by decapitation and brains were dissected and immersions fix in PFA at 4° C. for 72 hours. The fixative was exchanged to PBS containing 0.1% sodium azide and tissues were stored at 4° C. until further processed. […]
Scoring of the staining was carried out in a blinded fashion under 10× optical magnification. […] The intensity of plaque labelling was scored according to a relative intensity scale from 0 (no staining of plaques) up to 4 (intense decoration of plaques).

[1] = tested on: Amyloid beta 1-40 peptide; experiment: Total Amyloid beta 1-40 peptide in rat brain homogenates (ELISA); format: in vivo; conditions: Sprague-Dawley rats, 0.25-10 mg/kg weekly over 14 days
Experimental: […] Dosing solutions were made just before dosing. Animals were anaesthetized at the time indicated and cerebrospinal fluid (CSF) was aspirated from the cistema magna. CSF samples were centrifuged for 10 minutes at approximately 3000× g at 4° C. within 20 minutes of sampling to remove cells or debris. Samples were then frozen on dry ice and stored at −70° C. for subsequent analysis.
Animals were sacrificed by decapitation, brain tissue was dissected and Amyloid beta peptides were extracted from brain tissue in diethylamine (DEA; Fluka. Sigma. UK; cat: 31729). Briefly, frozen brain tissue was homogenized in 0.2% DEA and 50 mM NaCl (Merck, USA: cat: 1.06404.1000). Brain homogenates were ultracentrifuged at 133,000×g, for 1 hour. Recovered supernatants were neutralized to pH 8.0 with 2 M Tris-HCl (TRIZMA®-hydrochloride; Sigma, UK; cat: 93363) and stored at −70° C. until analysis. Animal experimentations were performed in accordance with relevant guidelines and regulations provided by the Swedish Board of Agriculture. […]
Measurement of total Amyloid beta 1-40 peptide in rat brain homogenates was performed using the mouse Amyloid beta (1-40) colorimetric ELISA kit (Invitrogen, UK; cat: KMB3481). […] To stop the reaction, 100 μl of Stop Solution was added to each well and the plate was read within 2 hours at an absorbance of 450 nm. […]

[2] = target: T1, unlabelled murine Amyloid beta 1-40 (Mus musculus, UniProt P12023); experiment: Surface Plasmon Resonance specificity profiling of IgGs (BIAcore2000); format: binding; conditions: peptide 64-1024 nM
T1 construct: unlabelled murine Amyloid beta 1-40 (rPeptide, USA; cat: A1007); purchased rPeptide, USA A1007; host or cells: synthetic peptide
Experimental: (§1) Surface Plasmon Resonance was used to verify the specificity of the affinity-optimized IgGs for the human Amyloid beta 1-42 peptide. Briefly, the BIAcore2000 (GE Healthcare, UK) biosensor instrument was used to assess the kinetic parameters of the interaction between each test IgG and a range of small peptides including synthetically-produced human Amyloid beta 1-42 and human Amyloid beta 1-40. These experiments were performed essentially as described by Karlsson et al. (Karlsson et al., 1991).
(§2) The interaction between each test IgG and each peptide was estimated using assays in which the antibody was non-covalently captured by a protein G surface that was itself amine linked to a proprietary CM5 chip. The interaction between antibody and peptide was observed using a 5 application single cycle approach. The chip surface was regenerated between cycles by paired 40 second injections of 10 mM Glycine pH 2.0 to remove ligand and bound antibody. The test antibody was then reapplied for each peptide injection cycle.
(§3) Blank reference flow-cell data were subtracted from each IgG dataset and a zero-concentration antibody-only buffer blank was double-reference subtracted from the main dataset.

[3] = target: T2, unlabelled murine Amyloid beta 1-42 (Mus musculus, UniProt P12023); experiment: as above; format: binding; conditions: peptide 64-1024 nM
T2 construct: unlabelled murine Amyloid beta 1-42 (rPeptide, USA; cat: A1008); purchased rPeptide, USA A1008; host or cells: synthetic peptide
Experimental: as §1, §2, §3

[4] = target: T3, biotinylated human Amyloid beta 1-40 (Homo sapiens, UniProt P05067); experiment: as above; format: binding; conditions: peptide 64-1024 nM
T3 construct: biotinylated human Amyloid beta 1-40 (rPeptide, USA; cat: A1111); purchased rPeptide, USA A1111; host or cells: synthetic peptide
Experimental: as §1, §2, §3

[5] = target: T4, biotinylated human Amyloid beta 1-42 (Homo sapiens, UniProt P05067); experiment: as above; format: binding; conditions: peptide 64-1024 nM
T4 construct: biotinylated human Amyloid beta 1-42 peptide (rpeptide, USA; cat: A1117); purchased rPeptide, USA A1117; host or cells: synthetic peptide
Experimental: as §1, §2, §3

[6] = listed as Abet0380-GL (germlined) IgG1-TM

T2 sequence (P12023 672-713): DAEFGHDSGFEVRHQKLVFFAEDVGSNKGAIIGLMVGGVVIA
T3 sequence (P05067 672-711): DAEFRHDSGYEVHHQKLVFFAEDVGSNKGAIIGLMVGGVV
T4 sequence (P05067 672-713): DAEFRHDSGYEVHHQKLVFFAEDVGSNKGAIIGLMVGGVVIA
T1 sequence (P12023 672-711): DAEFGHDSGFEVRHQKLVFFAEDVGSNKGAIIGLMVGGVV

B1: Abet0380-GL IgG1-TM: germlined Abet0380; VH SEQ ID NO: 524, VL SEQ ID NO: 533; human IgG1 triple mutant format (antibody, listed as Homo sapiens, V domains shown)
VH: EVQLLESGGGLVQPGGSLRLSCAASMGNFNYQTMWWVRQAPGKGLEWVSVIGKTNENIAYADSVKGRFTISRDNSKNTLYLQMNSLRAEDTAVYYCAREWMDHSRPYYYYGMDVWGQGTLVTVSS
VL: SYELTQPPSVSVSPGQTASITCSGHNLEDKFASWYQQKPGQSPVLVIYRDDKRPSGIPERFSASNSGHTATLTISGTQAMDEADYYCSSQDTVTRVFGGGTKLTVL
modifications: human IgG1 triple mutant constant region; /note=“Abet0380-GL”
notes: germlined Abet0380; human IgG1 triple mutant format
in vivo decoration of Amyloid beta plaques or CAA (Amyloid beta plaques): did not decorate; also recorded: does not show any in vivo plaque decoration
effect on total Amyloid beta 1-40 peptide in brain tissue [1]: unaffected
binding of unlabelled murine Amyloid beta 1-40 peptide to immobilized antibody [2]: no discernable binding
binding of unlabelled murine Amyloid beta 1-40 peptide to immobilized antibody [2, 6]: no binding
binding of unlabelled murine Amyloid beta 1-42 peptide to immobilized antibody [3]: clear binding
binding of unlabelled murine Amyloid beta 1-42 peptide to immobilized antibody [3, 6]: strong binding
binding of biotinylated human Amyloid beta 1-40 peptide to immobilized antibody [4]: no discernable binding
binding of biotinylated human Amyloid beta 1-40 peptide to immobilized antibody [4, 6]: no binding
binding of biotinylated human Amyloid beta 1-42 peptide to immobilized antibody [5]: clear binding
binding of biotinylated human Amyloid beta 1-42 peptide to immobilized antibody [5, 6]: strong binding
